According to PMC10746679, “Mutations F352A and Y528A in human HSP90α reduce fibronectin association and fibrillogenesis in cell-derived matrices” (Cell Stress & Chaperones, 2023):

Target: Full-length fibronectin (UniProt P02751 32-2477)
Experiment: ELISA; solid-phase binding assay; FN-FL or FN70 coated on high-binding plates (25 μg/ml by the legend), blocked with 3% BSA in Buffer A; wild type or mutant His-HSP90α at varying concentrations added overnight at 4 °C; detected with anti-HSP90α antibody, HRP secondary, absorbance 450 nm
Settings: both partners purified

Chain of Full-length fibronectin (P02751 other isoform, or with tags, fused parts or gaps, chain 1 of 2): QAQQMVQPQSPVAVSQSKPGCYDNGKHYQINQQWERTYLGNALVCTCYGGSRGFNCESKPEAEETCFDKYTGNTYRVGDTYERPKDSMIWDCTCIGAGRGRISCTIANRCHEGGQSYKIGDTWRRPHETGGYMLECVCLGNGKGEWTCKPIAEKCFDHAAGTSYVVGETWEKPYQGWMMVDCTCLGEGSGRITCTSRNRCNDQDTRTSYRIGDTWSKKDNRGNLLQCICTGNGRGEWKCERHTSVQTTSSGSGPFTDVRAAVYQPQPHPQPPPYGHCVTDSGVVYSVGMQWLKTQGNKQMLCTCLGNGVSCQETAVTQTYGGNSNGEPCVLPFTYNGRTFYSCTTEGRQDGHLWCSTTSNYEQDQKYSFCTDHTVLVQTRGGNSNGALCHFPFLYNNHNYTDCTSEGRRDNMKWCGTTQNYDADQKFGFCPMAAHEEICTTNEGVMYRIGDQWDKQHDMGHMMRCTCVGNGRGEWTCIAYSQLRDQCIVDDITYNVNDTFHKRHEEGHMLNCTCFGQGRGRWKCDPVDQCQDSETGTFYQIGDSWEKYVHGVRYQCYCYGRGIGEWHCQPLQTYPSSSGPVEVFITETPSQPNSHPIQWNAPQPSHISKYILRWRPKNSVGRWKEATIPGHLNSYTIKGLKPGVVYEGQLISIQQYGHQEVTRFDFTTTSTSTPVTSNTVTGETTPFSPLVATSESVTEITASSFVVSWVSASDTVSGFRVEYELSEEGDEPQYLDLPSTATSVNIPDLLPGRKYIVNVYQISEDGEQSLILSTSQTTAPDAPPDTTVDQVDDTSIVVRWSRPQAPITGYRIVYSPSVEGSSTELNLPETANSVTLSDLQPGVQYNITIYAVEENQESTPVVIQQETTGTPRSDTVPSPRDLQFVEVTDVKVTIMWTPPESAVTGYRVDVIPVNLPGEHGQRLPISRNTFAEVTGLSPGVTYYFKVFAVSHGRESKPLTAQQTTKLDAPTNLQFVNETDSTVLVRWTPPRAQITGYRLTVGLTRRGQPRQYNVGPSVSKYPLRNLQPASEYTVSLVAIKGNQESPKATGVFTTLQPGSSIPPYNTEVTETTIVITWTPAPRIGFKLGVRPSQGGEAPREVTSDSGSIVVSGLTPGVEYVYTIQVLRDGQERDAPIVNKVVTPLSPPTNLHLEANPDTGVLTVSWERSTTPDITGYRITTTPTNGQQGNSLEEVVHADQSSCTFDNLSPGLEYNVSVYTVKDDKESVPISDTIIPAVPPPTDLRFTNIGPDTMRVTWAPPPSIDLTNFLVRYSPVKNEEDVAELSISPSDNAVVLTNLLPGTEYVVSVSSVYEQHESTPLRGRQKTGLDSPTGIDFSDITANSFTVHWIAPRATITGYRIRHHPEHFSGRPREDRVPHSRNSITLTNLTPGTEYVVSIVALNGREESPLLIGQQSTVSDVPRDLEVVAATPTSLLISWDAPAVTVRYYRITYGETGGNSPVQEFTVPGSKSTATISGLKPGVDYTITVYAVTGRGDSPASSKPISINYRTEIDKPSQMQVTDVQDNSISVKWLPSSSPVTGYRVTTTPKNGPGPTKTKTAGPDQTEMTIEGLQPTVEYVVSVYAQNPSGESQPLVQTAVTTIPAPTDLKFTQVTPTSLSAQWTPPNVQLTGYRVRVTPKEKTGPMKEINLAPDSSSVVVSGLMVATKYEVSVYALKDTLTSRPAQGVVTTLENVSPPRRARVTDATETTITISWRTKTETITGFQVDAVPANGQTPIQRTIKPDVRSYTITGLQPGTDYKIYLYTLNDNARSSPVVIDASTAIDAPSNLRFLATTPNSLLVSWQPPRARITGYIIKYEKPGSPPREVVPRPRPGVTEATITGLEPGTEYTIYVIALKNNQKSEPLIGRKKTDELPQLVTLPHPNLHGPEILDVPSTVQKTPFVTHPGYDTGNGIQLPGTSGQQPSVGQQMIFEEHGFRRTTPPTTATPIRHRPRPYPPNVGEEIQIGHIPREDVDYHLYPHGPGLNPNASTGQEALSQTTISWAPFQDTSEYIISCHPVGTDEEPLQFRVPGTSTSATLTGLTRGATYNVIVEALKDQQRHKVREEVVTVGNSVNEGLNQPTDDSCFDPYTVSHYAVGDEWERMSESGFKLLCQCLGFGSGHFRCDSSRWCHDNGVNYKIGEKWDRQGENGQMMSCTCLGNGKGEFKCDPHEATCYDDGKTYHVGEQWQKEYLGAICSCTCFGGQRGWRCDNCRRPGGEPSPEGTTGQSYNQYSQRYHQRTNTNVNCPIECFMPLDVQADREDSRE
Chain of Full-length fibronectin (P02751 other isoform, or with tags, fused parts or gaps, chain 2 of 2): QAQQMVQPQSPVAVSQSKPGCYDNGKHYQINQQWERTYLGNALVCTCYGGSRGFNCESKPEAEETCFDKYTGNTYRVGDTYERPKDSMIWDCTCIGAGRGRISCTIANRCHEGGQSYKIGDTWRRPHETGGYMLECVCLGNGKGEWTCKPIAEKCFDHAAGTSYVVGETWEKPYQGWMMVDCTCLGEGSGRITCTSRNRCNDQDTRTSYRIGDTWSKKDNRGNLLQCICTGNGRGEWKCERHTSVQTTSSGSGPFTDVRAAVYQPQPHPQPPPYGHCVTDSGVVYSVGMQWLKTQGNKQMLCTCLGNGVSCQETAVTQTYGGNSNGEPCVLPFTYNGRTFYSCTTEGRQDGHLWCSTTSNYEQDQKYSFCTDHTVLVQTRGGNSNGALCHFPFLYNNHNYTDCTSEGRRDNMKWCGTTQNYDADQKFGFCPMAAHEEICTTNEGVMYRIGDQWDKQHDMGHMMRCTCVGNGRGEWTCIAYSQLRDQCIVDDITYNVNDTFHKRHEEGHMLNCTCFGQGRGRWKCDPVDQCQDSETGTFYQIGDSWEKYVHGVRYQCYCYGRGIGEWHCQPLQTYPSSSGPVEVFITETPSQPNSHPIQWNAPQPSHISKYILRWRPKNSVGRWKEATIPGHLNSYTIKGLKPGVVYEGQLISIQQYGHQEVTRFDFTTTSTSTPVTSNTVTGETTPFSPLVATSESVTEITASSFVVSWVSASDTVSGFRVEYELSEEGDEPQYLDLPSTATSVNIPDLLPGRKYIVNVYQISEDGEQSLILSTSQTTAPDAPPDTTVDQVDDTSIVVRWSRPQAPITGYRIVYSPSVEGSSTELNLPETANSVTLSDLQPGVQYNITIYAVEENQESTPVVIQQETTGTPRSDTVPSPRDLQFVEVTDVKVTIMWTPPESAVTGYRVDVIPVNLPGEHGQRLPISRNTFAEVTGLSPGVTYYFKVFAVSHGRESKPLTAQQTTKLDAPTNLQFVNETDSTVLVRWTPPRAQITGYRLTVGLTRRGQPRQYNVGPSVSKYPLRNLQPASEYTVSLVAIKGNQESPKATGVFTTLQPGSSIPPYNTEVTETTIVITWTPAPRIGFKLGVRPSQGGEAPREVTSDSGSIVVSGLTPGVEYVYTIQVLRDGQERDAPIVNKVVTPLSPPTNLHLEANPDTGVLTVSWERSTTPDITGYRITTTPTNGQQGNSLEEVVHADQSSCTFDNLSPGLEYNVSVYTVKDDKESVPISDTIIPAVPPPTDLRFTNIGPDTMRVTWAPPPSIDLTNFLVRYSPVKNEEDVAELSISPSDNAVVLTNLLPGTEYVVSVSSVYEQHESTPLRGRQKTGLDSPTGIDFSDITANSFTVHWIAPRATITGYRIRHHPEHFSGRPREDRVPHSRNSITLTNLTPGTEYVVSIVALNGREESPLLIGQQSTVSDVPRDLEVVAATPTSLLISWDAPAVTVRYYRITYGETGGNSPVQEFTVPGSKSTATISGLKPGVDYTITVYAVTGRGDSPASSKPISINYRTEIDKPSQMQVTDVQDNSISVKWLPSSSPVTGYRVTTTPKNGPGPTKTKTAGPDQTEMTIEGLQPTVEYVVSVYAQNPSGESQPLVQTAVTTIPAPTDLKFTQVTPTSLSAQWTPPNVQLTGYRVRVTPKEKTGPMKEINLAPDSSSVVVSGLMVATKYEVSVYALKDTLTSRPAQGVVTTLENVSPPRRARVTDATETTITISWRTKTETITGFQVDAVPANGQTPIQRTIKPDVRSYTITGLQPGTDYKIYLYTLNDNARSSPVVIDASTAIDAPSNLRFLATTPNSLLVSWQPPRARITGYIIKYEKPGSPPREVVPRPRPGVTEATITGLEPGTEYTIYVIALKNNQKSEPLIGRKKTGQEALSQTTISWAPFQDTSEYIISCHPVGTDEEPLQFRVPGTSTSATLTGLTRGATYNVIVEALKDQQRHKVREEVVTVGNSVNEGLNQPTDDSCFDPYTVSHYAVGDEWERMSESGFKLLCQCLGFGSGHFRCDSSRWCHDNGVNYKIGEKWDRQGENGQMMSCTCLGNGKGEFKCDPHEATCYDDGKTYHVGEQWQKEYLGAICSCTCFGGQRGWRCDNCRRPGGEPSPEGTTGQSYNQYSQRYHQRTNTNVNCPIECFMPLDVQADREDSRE

Binder | percent reduction in binding against wild type His-HSP90α [%]
His-HSP90α-H450A (natural protein, Heat shock protein HSP 90-alpha, human, point mutant of the full-length His-HSP90α) not shown | ~25
His-HSP90α-E353A (natural protein, Heat shock protein HSP 90-alpha, human, point mutant of the full-length His-HSP90α) not shown | ~25
His-HSP90α-F352A (natural protein, Heat shock protein HSP 90-alpha, human, point mutant of the full-length His-HSP90α) not shown | ~40
His-HSP90α-Y528A (natural protein, Heat shock protein HSP 90-alpha, human, point mutant of the full-length His-HSP90α) not shown | ~25
His-HSP90α-R620A (natural protein, Heat shock protein HSP 90-alpha, human, point mutant of the full-length His-HSP90α) not shown | ~25
